Laboratory results: patent publication US20140274782A1, “AFFINITY REAGENTS AND METHODS FOR DETECTION, PURIFICATION, AND PROTEOMIC ANALYSIS OF METHYLATED PROTEINS” (The Board of Trustees of the Leland Stanford Junior …, priority 2013, published 2014)

Tests used:
3×MBT domain of L3MBTL1 = experiment: Triple SILAC pull-down, 3xMBT/3xMBTD355N ratio (cytoplasmic, nuclear and chromatin fractions of 293T cells); format: binding, human; conditions: SILAC ratio, pull-down 3xMBT vs 3xMBTD355N; for 3xMBT/D355N UNC Heavy: experiment with UNC0638 in heavy SILAC media; for 3xMBT/D355N UNC Light: experiment with UNC0638 in light SILAC media;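 for all read-outs here: proteins quantified with MaxQuant, requiring at least two unique peptides and quantification in both label directions, normalized to the mean of proteins from a digested loading control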
Description: For stable isotope labeling by amino acids in cell culture (SILAC) experiments HEK 293T cells were grown for at least six doublings in DMEM for SILAC supplemented with 10% dialyzed fetal bovine serum (FBS), 230 mg/L L-proline and either 100 mg/L each of L-lysine and L-arginine (“light” medium), D4-L-lysine and ^13C6-L-arginine (“medium” media), or ^13C6^15N2-L-lysine and ^13C6^15N4-L-arginine (Thermo Scientific). Heavy methyl labeling used DMEM without L-Methionine or L-Cysteine supplemented with D3^13C-L-Methionine (Sigma), L-Cysteine (Sigma) and 10% dialyzed FBS.
For UNC0638 treatments cells were treated for 24 hours with UNC0638 at 2.5 μM or DMSO vehicle control. One experiment treated cells in light media with UNC0638, the other treated cells in heavy media. Both experiments included cells in medium media treated with DMSO for negative control pull-down with 3×MBTD355N.
UNC0638 treatment experiments used a Q-Exactive mass spectrometer (ThermoFisher Scientific). A 25 cm HPLC column with 3 μm Reliasil (Orochem) was used to separate peptides over a 4 hour gradient from 0 to 75% acetonitrile. Ions were generated using a custom nanospray source flowing at 250 nL/minute. Mass spectrometry settings were 70,000 MS1 resolution, data dependent selection of up to 20 precursor ions per cycle, dynamic exclusion of 30 seconds and isolation window of 2 m/z. The nuclear fraction from the experiment using UNC0638 on cells in heavy media was additionally analyzed by 2D HPLC-MS/MS as described earlier.
Peptides were identified and quantified using MaxQuant version 1.2.2.5 (Cox and Mann, supra) with the following changes to default settings: mono- and di-methylation of lysine, and oxidation of methionine, and N-terminal acetylation as variable modifications, disabled “I=L”, up to three modifications per peptide, one missed cleavage, maximum charge of 5. Protein and peptide FDR were set to 1%, and proteins were filtered post-hoc for at least two unique peptides. Proteins were excluded from an experiment if they were not quantified in both labeling directions. Because FDR is unreliable for small numbers of peptides the modification site FDR was set to 10% and all methylated peptides were manually verified. […] Quantitative protein data was normalized to the mean value among proteins identified by analyzing 50 ng of digested loading control.
For UNC0638 experiments the treated vs. untreated ratio was determined by subtracting the value from 3×MBTD355N prior to dividing values from the light and heavy channels. Only proteins showing a two-fold signal to background ratio (3×MBT/3×MBTD355N) were evaluated as potential G9a/GLP substrates.

G9a and GLP = molecular target: T1, G9a and GLP (Homo sapiens, UniProt Q96KQ7+Q9H9B1); experiment: Triple SILAC pull-down after UNC0638 treatment of 293T cells, DMSO/UNC0638 ratio of protein captured by 3×MBT; format: cell-based; design: cells were treated for 24 hours with UNC0638 at 2.5 μM or DMSO vehicle control; endogenous in cells; host or cells: HEK 293T; conditions: for Relative to UNC0638 UNC Heavy / Relative to UNC0638 UNC Light: SILAC ratio DMSO/UNC0638 of protein pulled down with 3xMBT; for Relative to UNC0638 UNC Heavy: UNC0638 in heavy SILAC media; for Relative to UNC0638 UNC Light: UNC0638 in light SILAC media; for Relative to UNC0638 Average: average of UNC Light and UNC Heavy experiments;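 for all read-outs here: mass spectrometry (Q-Exactive) SILAC quantitation, DMSO/UNC0638 ratio computed after subtracting 3×MBTD355N mutant pull-down background, only proteins with at least twofold 3×MBT over mutant signal considered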
T1 sequence (Q96KQ7 2-1210 limits assumed): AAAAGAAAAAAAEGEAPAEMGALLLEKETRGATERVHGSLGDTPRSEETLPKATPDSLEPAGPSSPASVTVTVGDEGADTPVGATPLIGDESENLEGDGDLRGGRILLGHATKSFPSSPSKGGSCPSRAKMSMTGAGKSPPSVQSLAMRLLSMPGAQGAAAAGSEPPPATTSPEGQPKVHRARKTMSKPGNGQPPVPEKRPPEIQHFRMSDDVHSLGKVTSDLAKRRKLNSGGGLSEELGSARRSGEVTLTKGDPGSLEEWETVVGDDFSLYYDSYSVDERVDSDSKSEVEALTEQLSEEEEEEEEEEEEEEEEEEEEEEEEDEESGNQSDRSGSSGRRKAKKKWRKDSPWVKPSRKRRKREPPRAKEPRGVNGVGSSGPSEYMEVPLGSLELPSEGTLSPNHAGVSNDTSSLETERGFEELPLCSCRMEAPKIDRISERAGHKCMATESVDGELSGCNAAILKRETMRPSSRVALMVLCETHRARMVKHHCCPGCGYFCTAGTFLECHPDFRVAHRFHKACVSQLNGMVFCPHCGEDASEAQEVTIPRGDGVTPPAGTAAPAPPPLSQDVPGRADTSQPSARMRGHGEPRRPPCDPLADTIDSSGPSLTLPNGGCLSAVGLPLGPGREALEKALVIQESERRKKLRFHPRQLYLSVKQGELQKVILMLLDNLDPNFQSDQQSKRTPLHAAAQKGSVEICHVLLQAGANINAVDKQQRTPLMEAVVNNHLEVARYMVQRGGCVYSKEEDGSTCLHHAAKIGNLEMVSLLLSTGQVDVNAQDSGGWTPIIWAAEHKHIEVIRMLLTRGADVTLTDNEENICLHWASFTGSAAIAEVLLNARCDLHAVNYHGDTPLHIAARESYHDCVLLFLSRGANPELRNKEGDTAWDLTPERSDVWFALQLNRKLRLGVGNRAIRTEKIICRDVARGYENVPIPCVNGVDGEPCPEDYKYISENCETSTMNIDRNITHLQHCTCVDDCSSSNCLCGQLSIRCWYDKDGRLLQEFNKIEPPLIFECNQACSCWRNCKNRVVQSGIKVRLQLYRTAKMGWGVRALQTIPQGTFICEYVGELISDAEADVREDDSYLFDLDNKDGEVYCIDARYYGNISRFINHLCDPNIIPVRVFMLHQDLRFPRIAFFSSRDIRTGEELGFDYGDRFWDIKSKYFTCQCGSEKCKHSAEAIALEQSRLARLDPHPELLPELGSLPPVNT
T1 sequence (Q9H9B1 2-1298 limits assumed): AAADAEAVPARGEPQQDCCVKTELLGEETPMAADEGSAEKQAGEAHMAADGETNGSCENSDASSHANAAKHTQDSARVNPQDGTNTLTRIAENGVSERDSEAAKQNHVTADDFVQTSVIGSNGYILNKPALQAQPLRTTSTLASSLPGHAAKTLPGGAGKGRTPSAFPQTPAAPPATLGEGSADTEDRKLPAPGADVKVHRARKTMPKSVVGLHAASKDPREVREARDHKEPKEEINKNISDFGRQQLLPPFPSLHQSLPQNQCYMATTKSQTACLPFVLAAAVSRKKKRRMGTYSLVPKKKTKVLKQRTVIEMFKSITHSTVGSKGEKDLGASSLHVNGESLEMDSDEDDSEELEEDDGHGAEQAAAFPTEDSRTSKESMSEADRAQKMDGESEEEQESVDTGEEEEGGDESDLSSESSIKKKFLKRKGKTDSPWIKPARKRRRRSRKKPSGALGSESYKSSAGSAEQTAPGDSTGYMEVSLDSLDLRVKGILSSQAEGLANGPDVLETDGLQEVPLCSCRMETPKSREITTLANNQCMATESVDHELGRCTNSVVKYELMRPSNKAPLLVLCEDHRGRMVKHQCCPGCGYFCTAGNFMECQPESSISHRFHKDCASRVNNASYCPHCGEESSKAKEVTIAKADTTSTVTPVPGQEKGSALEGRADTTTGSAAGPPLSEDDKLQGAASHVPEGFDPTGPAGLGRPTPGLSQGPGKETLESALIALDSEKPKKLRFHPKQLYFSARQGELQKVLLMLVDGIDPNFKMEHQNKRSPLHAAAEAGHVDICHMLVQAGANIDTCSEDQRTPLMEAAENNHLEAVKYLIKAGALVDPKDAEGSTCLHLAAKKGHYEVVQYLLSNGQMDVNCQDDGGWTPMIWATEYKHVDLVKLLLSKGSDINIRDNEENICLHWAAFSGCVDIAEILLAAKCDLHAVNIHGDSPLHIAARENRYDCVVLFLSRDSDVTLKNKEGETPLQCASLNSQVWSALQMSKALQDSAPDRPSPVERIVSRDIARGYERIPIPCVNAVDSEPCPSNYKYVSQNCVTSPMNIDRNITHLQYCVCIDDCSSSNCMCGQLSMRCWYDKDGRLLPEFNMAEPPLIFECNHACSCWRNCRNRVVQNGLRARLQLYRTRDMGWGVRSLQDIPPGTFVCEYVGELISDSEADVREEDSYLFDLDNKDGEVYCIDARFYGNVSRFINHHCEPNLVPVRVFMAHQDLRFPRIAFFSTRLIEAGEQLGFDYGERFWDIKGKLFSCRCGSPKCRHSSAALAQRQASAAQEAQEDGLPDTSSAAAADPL

Row | Molecule | 3xMBT/D355N UNC Heavy (3×MBT domain of L3MBTL1) [log base 2] | 3xMBT/D355N UNC Light (3×MBT domain of L3MBTL1) [log base 2] | Relative to UNC0638 UNC Heavy (G9a and GLP) [log base 2] | Relative to UNC0638 UNC Light (G9a and GLP) [log base 2] | Relative to UNC0638 Average (G9a and GLP) [log base 2] | Candidate G9a/GLP target (G9a and GLP; reduced association with 3xMBT after UNC0638 treatment)
1 | SRP14 (protein, UniProt P37108 2-136, looked up) Signal recognition particle …: VLLESEQFLTELTRLFQKCRTSGSVYITLKKYDGRTKPIPKKGTVEGFEPADNKCLLRATDGKKKISTVVSSKEVNKFQMAYSNLLRANMDGLKKRDKKNKTKKTKAAAAAAAAAPAAAATAPTTAATTAATAAQ | 2.23 | 2.96 | 0.30 | 0.07 | 0.19 | –
2 | KIF2A (protein, UniProt O00139 1-706, looked up) Kinesin-like protein KIF2A: MATANFGKIQIGIYVEIKRSDGRIHQAMVTSLNEDNESVTVEWIENGDTKGKEIDLESIFSLNPDLVPDEEIEPSPETPPPPASSAKVNKIVKNRRTVASIKNDPPSRDNRVVGSARARPSQFPEQSSSAQQNGSVSDISPVQAAKKEFGPPSRRKSNCVKEVEKLQEKREKRRLQQQELREKRAQDVDATNPNYEIMCMIRDFRGSLDYRPLTTADPIDEHRICVCVRKRPLNKKETQMKDLDVITIPSKDVVMVHEPKQKVDLTRYLENQTFRFDYAFDDSAPNEMVYRFTARPLVETIFERGMATCFAYGQTGSGKTHTMGGDFSGKNQDCSKGIYALAARDVFLMLKKPNYKKLELQVYATFFEIYSGKVFDLLNRKTKLRVLEDGKQQVQVVGLQEREVKCVEDVLKLIDIGNSCRTSGQTSANAHSSRSHAVFQIILRRKGKLHGKFSLIDLAGNERGADTSSADRQTRLEGAEINKSLLALKECIRALGRNKPHTPFRASKLTQVLRDSFIGENSRTCMIATISPGMASCENTLNTLRYANRVKELTVDPTAAGDVRPIMHHPPNQIDDLETQWGVGSSPQRDDLKLLCEQNEEEVSPQLFTFHEAVSQMVEMEEQVVEDHRAVFQESIRWLEDEKALLEMTEEVDYDVDSYATQLEAILEQKIDILTELRDKVKSFRAALQEEEQASKQINPKRPRAL | 2.05 | 2.33 | 0.23 | 0.15 | 0.19 | –
3 | CALD1 (protein, UniProt Q05682 1-793, looked up) Caldesmon: MDDFERRRELRRQKREEMRLEAERIAYQRNDDDEEEAARERRRRARQERLRQKQEEESLGQVTDQVEVNAQNSVPDEEAKTTTTNTQVEGDDEAAFLERLARREERRQKRLQEALERQKEFDPTITDASLSLPSRRMQNDTAENETTEKEEKSESRQERYEIEETETVTKSYQKNDWRDAEENKKEDKEKEEEEEEKPKRGSIGENQVEVMVEEKTTESQEETVVMSLKNGQISSEEPKQEEEREQGSDEISHHEKMEEEDKERAEAERARLEAEERERIKAEQDKKIADERARIEAEEKAAAQERERREAEERERMREEEKRAAEERQRIKEEEKRAAEERQRIKEEEKRAAEERQRIKEEEKRAAEERQRARAEEEEKAKVEEQKRNKQLEEKKHAMQETKIKGEKVEQKIEGKWVNEKKAQEDKLQTAVLKKQGEEKGTKVQAKREKLQEDKPTFKKEEIKDEKIKKDKEPKEEVKSFMDRKKGFTEVKSQNGEFMTHKLKHTENTFSRPGGRASVDTKEAEGAPQVEAGKRLEELRRRRGETESEEFEKLKQKQQEAALELEELKKKREERRKVLEEEEQRRKQEEADRKLREEEEKRRLKEEIERRRAEAAEKRQKMPEDGLSDDKKPFKCFTPKGSSLKIEERAEFLNKSVQKSSGVKSTHQAAIVSKIDSRLEQYTSAIEGTKSAKPTKPAASDLPVPAEGVRNIKSMWEKGNVFSSPTAAGTPNKETAGLKVGVSSRINEWLTKTPDGNKSPAPKPSDLRPGDVSSKRNLWEKQSVDKVTSPTKV | 3.53 | 3.50 | 0.29 | 0.09 | 0.19 | –
4 | PRDX2 (protein, UniProt P32119 2-198, looked up) Peroxiredoxin-2: ASGNARIGKPAPDFKATAVVDGAFKEVKLSDYKGKYVVLFFYPLDFTFVCPTEIIAFSNRAEDFRKLGCEVLGVSVDSQFTHLAWINTPRKEGGLGPLNIPLLADVTRRLSEDYGVLKTDEGIAYRGLFIIDGKGVLRQITVNDLPVGRSVDEALRLVQAFQYTDEHGEVCPAGWKPGSDTIKPNVDDSKEYFSKHN | 2.19 | 4.01 | 0.43 | 1.96 | 1.19 | ✓
5 | LSM12 (protein, UniProt Q3MHD2 2-195, looked up) Protein LSM12: AAPPGEYFSVGSQVSCRTCQEQRLQGEVVAFDYQSKMLALKCPSSSGKPNHADILLINLQYVSEVEIINDRTETPPPLASLNVSKLASKARTEKEEKLSQAYAISAGVSLEGQQLFQTIHKTIKDCKWQEKNIVVMEEVVITPPYQVENCKGKEGSALSHVRKIVEKHFRDVESQKILQRSQAQQPQKEAALSS | 2.07 | 3.81 | 0.03 | 0.34 | 0.18 | –
